Results on 2 sequences are retold here after patent US20090136940.

The target of this data set is T1, NF-kB p50 (NFKB1) (Homo sapiens) (UniProt P19838).
T1 sequence: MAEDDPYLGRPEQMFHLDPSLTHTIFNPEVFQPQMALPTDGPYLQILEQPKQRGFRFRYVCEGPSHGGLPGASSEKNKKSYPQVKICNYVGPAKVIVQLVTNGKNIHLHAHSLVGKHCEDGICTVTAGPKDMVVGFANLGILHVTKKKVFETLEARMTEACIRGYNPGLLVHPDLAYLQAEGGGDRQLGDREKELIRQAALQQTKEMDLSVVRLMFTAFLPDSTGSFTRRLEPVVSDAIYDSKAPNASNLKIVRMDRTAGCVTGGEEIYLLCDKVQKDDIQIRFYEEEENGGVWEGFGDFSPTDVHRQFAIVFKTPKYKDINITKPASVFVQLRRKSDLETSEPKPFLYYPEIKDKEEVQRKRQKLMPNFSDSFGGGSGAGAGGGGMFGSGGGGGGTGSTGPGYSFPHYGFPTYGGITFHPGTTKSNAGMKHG
As to the kind of experiment: EMSA. The settings on record: saturating p50 monomer (200 nM). Background: In EMSA bound probe runs differently from free probe, usually more slowly.

Where the note is “internucleoside phosphotriester triethylene glycol amino linker after T12 of SEQ 2, truncated site”, “TGGAAAGCTTTTTACAGTT (double strand) [ODN4/Cy5.5-ODN5]” came in with a binding signal (% fluorescence co-migrating with p50) of 63.
For the sequence “CGGAAAGTCCCTCATAGCT (double strand) [I (ODN2)/Cy5.5-XIX (ODN3)]”, the binding signal (% fluorescence co-migrating with p50) (internucleoside phosphotriester triethylene glycol amino linker after T8 of SEQ 1) was 94.
